Paper PMC11257983 (2024)

B1: Flag-CNK^2–549 [Drosophila] / GST-HYP [Drosophila] (parent complex)
chain 1: AYINIAEWTPDQVTDWIKGLDESMKGYLYEFSKQEIGGRALLNIRPYELENLGMLRIGHQEIVLEAVENLRNFHYHLKNDNLQFMALHVATAAKNLHRELARNHAESTKIDTRILHDITRTIATLKPLVGSLERTPFRKQEMYREYCGNVLKCGLELATIAHRDRFALQPVPAIRQSAERLENLANFVIQDISDPMVLQPASLNLVTLKKRESELGFNIESSYNGIHRVTDIKYNSPAHNSGKIEDGDEIVQINYQTVVGWQHRTVLEHLREALPDVVLTVKKRPKHTKMFGQIYMQPYRLPSKKRNMAARWAAQMPSPRAAFLTLDTEQLATGGTGSAVPDPSKSLSSEKREVLTKANPVSSASDSDSSCSDIPTPTDPKLAAREIRLYYPKPRALLQRRNTICGCEYLSLKNSDLVVPSWHERKPGIGSPTNCDPGSPSIRDKSISFGYGLEMAARPTTCIGIAGDTSTDKARRMFHEARKLKQLTEDSQREFLVDRYKPGVSKVVRFDAKEDYVMKNEKFICNVENTILETFEPIPFADEGDEDA
chain 2: MGEETINSTQNKTRTKTTRPKAVYLWTVSDVLKWYRRHCGEYTQYEQLFAQHDITGRALLRITDSSLQRMGVTDNRDREAIWREIVKQRLKTDIMEIRDMERLNIY

Variants of: B1
Test: GST pull-down, immunoblot quantification; S2 cells; only Flag-CNK2–549 and GST-HYP co-expressed; anti-Flag (CNK) blot; parent: 1

Row | Variant | ratio to parent
1 | chain 1 AYINIAEWTPDQVTDWIKGLDESMKGYLYEFSKQEIGGRALLNIRPYELENLGMLRIGHQEIVLEAVENLRNFHYHLKNDELQFMALHVATAAKNLHRELARNHAESTKIDTRILHDITRTIATLKPLVGSLERTPFRKQEMYREYCGNVLKCGLELATIAHRDRFALQPVPAIRQSAERLENLANFVIQDISDPMVLQPASLNLVTLKKRESELGFNIESSYNGIHRVTDIKYNSPAHNSGKIEDGDEIVQINYQTVVGWQHRTVLEHLREALPDVVLTVKKRPKHTKMFGQIYMQPYRLPSKKRNMAARWAAQMPSPRAAFLTLDTEQLATGGTGSAVPDPSKSLSSEKREVLTKANPVSSASDSDSSCSDIPTPTDPKLAAREIRLYYPKPRALLQRRNTICGCEYLSLKNSDLVVPSWHERKPGIGSPTNCDPGSPSIRDKSISFGYGLEMAARPTTCIGIAGDTSTDKARRMFHEARKLKQLTEDSQREFLVDRYKPGVSKVVRFDAKEDYVMKNEKFICNVENTILETFEPIPFADEGDEDA [chain 1 N81E] | 0.9

Variants of: B1
Test: GST pull-down, immunoblot quantification; S2 cells; Flag-CNK2–549, V5-KSR, Myc-MEK, GST-HYP co-expressed; anti-CNK blot; parent: 1

Row | Variant | ratio to parent
2 | chain 1 AYINIAEWTPDQVTDWIKGLDESMKGYLYEFSKQEIGGRALLNIRPYELENLGMLRIGHQEIVLEAVENLRNFHYHLKNDELQFMALHVATAAKNLHRELARNHAESTKIDTRILHDITRTIATLKPLVGSLERTPFRKQEMYREYCGNVLKCGLELATIAHRDRFALQPVPAIRQSAERLENLANFVIQDISDPMVLQPASLNLVTLKKRESELGFNIESSYNGIHRVTDIKYNSPAHNSGKIEDGDEIVQINYQTVVGWQHRTVLEHLREALPDVVLTVKKRPKHTKMFGQIYMQPYRLPSKKRNMAARWAAQMPSPRAAFLTLDTEQLATGGTGSAVPDPSKSLSSEKREVLTKANPVSSASDSDSSCSDIPTPTDPKLAAREIRLYYPKPRALLQRRNTICGCEYLSLKNSDLVVPSWHERKPGIGSPTNCDPGSPSIRDKSISFGYGLEMAARPTTCIGIAGDTSTDKARRMFHEARKLKQLTEDSQREFLVDRYKPGVSKVVRFDAKEDYVMKNEKFICNVENTILETFEPIPFADEGDEDA [chain 1 N81E] | 0.24

Variants of: B1
Test: GST pull-down, immunoblot quantification; S2 cells; GST-HYP, V5-KSR, Myc-MEK co-expressed; anti-Flag (CNK) blot; parent: 1

Row | Variant | ratio to parent
3 | chain 1 AYINIAEWTPDQVTDWIKGLDESMKGYLYEFSKQEIGGRALLNIRPYELENLGMLRIGHQEIVLEAVENLRNFHYHLKNDNLQFMALHVATAAKNLHRELARNHAESTKIDTRILHDITRTIATLKPLVGSLERTPFRKQEMYREYCGNVLKCGLELATIAHRDRFALQPVPAIRQSAERLENLANFVIQDISDPMELQPASLNLVTLKKRESELGFNIESSYNGIHRVTDIKYNSPAHNSGKIEDGDEIVQINYQTVVGWQHRTVLEHLREALPDVVLTVKKRPKHTKMFGQIYMQPYRLPSKKRNMAARWAAQMPSPRAAFLTLDTEQLATGGTGSAVPDPSKSLSSEKREVLTKANPVSSASDSDSSCSDIPTPTDPKLAAREIRLYYPKPRALLQRRNTICGCEYLSLKNSDLVVPSWHERKPGIGSPTNCDPGSPSIRDKSISFGYGLEMAARPTTCIGIAGDTSTDKARRMFHEARKLKQLTEDSQREFLVDRYKPGVSKVVRFDAKEDYVMKNEKFICNVENTILETFEPIPFADEGDEDA [chain 1 V197E] | 0.24
4 | chain 1 AYINIAEWTPDQVTDWIKGLDESMKGYLYEFSKQEIGGRALLNIRPYELENLGMLRIGHQEIVLEAVENLRNFHYHLKNDNLQFMALHVATAAKNLHRELARNHAESTKIDTRILHDITRTIATLKPLVGSLERTPFRKQEMYREYCGNVLKCGLELATIAHRDRFALQPVPAIRQSAERLENLANFVIQDISKPMELQPASLNLVTLKKRESELGFNIESSYNGIHRVTDIKYNSPAHNSGKIEDGDEIVQINYQTVVGWQHRTVLEHLREALPDVVLTVKKRPKHTKMFGQIYMQPYRLPSKKRNMAARWAAQMPSPRAAFLTLDTEQLATGGTGSAVPDPSKSLSSEKREVLTKANPVSSASDSDSSCSDIPTPTDPKLAAREIRLYYPKPRALLQRRNTICGCEYLSLKNSDLVVPSWHERKPGIGSPTNCDPGSPSIRDKSISFGYGLEMAARPTTCIGIAGDTSTDKARRMFHEARKLKQLTEDSQREFLVDRYKPGVSKVVRFDAKEDYVMKNEKFICNVENTILETFEPIPFADEGDEDA [chain 1 D194K, chain 1 V197E] | 0.27

Variants of: B1
Test: GST pull-down, immunoblot quantification; S2 cells; only Flag-CNK2–549 and GST-HYP co-expressed; anti-Flag (CNK) blot; parent: 1
Remark: another data set of the same source

Row | Variant | ratio to parent
5 | chain 1 AYINIAEWTPDQVTDWIKGLDESMKGYLYEFSKQEIGGRALLNIRPYELENLGMLRIGHQEIVLEAVENLRNFHYHLKNDNLQFMALHVATAAKNLHRELARNHAESTKIDTRILHDITRTIATLKPLVGSLERTPFRKQEMYREYCGNVLKCGLELATIAHRDRFALQPVPAIRQSAERLENLANFVIQDISDPMELQPASLNLVTLKKRESELGFNIESSYNGIHRVTDIKYNSPAHNSGKIEDGDEIVQINYQTVVGWQHRTVLEHLREALPDVVLTVKKRPKHTKMFGQIYMQPYRLPSKKRNMAARWAAQMPSPRAAFLTLDTEQLATGGTGSAVPDPSKSLSSEKREVLTKANPVSSASDSDSSCSDIPTPTDPKLAAREIRLYYPKPRALLQRRNTICGCEYLSLKNSDLVVPSWHERKPGIGSPTNCDPGSPSIRDKSISFGYGLEMAARPTTCIGIAGDTSTDKARRMFHEARKLKQLTEDSQREFLVDRYKPGVSKVVRFDAKEDYVMKNEKFICNVENTILETFEPIPFADEGDEDA [chain 1 V197E] | 0.77
6 | chain 1 AYINIAEWTPDQVTDWIKGLDESMKGYLYEFSKQEIGGRALLNIRPYELENLGMLRIGHQEIVLEAVENLRNFHYHLKNDNLQFMALHVATAAKNLHRELARNHAESTKIDTRILHDITRTIATLKPLVGSLERTPFRKQEMYREYCGNVLKCGLELATIAHRDRFALQPVPAIRQSAERLENLANFVIQDISKPMELQPASLNLVTLKKRESELGFNIESSYNGIHRVTDIKYNSPAHNSGKIEDGDEIVQINYQTVVGWQHRTVLEHLREALPDVVLTVKKRPKHTKMFGQIYMQPYRLPSKKRNMAARWAAQMPSPRAAFLTLDTEQLATGGTGSAVPDPSKSLSSEKREVLTKANPVSSASDSDSSCSDIPTPTDPKLAAREIRLYYPKPRALLQRRNTICGCEYLSLKNSDLVVPSWHERKPGIGSPTNCDPGSPSIRDKSISFGYGLEMAARPTTCIGIAGDTSTDKARRMFHEARKLKQLTEDSQREFLVDRYKPGVSKVVRFDAKEDYVMKNEKFICNVENTILETFEPIPFADEGDEDA [chain 1 D194K, chain 1 V197E] | 1.03

Variants of: B1
Test: GST pull-down, immunoblot quantification; S2 cells; GST-HYP + RRKM (Ha-RASV12, Pyo-RAF, V5-KSR, Myc-MEK) co-expressed; anti-Flag (CNK) blot; parent: 1

Row | Variant | ratio to parent
7 | chain 1 AYINIAEWTPDQVTDWIKGLDESMKGYLYEFSKQEIGGRALLNIRPYELENLGMLRIGHQEIVLEAVENLRNFHYHLKNDNLQFMALHVATAAKNLHRELARNHAESTKIDTRILHDITRTIATLKPLVGSLERTPFRKQEMYREYCGNVLKCGLELATIAHRDRFALQPVPAIRQSAERLENLANFVIQDISDPMELQPASLNLVTLKKRESELGFNIESSYNGIHRVTDIKYNSPAHNSGKIEDGDEIVQINYQTVVGWQHRTVLEHLREALPDVVLTVKKRPKHTKMFGQIYMQPYRLPSKKRNMAARWAAQMPSPRAAFLTLDTEQLATGGTGSAVPDPSKSLSSEKREVLTKANPVSSASDSDSSCSDIPTPTDPKLAAREIRLYYPKPRALLQRRNTICGCEYLSLKNSDLVVPSWHERKPGIGSPTNCDPGSPSIRDKSISFGYGLEMAARPTTCIGIAGDTSTDKARRMFHEARKLKQLTEDSQREFLVDRYKPGVSKVVRFDAKEDYVMKNEKFICNVENTILETFEPIPFADEGDEDA [chain 1 V197E] | 0.21
